# Results from patent US20090298765A1 (Takeda / Millennium, published 2009).
# Where two headings read alike, the source gives them in different places. Starred links: 1 amine or outer side, 2 acyl side, 3 side chain; linkers in the order of their positions; H or OH if unused. Non-standard residues stand in square brackets, D forms with d. No end group written: not given here. *: point of attachment. Propanoyl(3-indol-3-yl) = O=C(CCc1c[nH]c2ccccc12)*; Phe(F5) = N[C@@H](Cc1c(F)c(F)c(F)c(F)c1F)C(=O)O; Tyr(Me) = COc1ccc(C[C@H](N[*:1])C(=O)[*:2])cc1; Propanoyl(3-(3-pyridyl)) = O=C(CCc1cccnc1)*; Phe(4-NH2) = Nc1ccc(C[C@H](N)C(=O)O)cc1; Arg(Me) = CNC(=N)NCCC[C@H](N)C(=O)O; Fmoc = O=C(OCC1c2ccccc2-c2ccccc21)*; 4Pal = N[C@@H](Cc1ccncc1)C(=O)O; d4Pal = N[C@H](Cc1ccncc1)C(=O)O; Cha = N[C@@H](CC1CCCCC1)C(=O)O; azaGly = NNC(=O)O
# Key:
# [1] = target: T1, human OT7T175 (metastin receptor) (human, UniProt Q969F8 1-398); experiment: cell-based or functional assay
# [2] = target: human OT7T175 (metastin receptor) (human) (UniProt Q969F8); experiment: cell-based or functional assay
# [3] = target: human OT7T175 (metastin receptor) (human) (UniProt Q969F8); experiment: competition with Cy-5 metastin (40-54) on hOT7T175-CHO cells, FMAT
# [4] = target: T1, human OT7T175 (metastin receptor); experiment: cell-based or functional assay; remark: listed apart in the source
# [5] = target: T1, human OT7T175 (metastin receptor); experiment: competition with Cy-5 metastin (40-54) on hOT7T175-CHO cells, FMAT
# [6] = target: T1, human OT7T175 (metastin receptor); experiment: cell-based or functional assay; remark: listed apart in the source
# [7] = target: T1, human OT7T175 (metastin receptor); experiment: cell-based or functional assay; remark: listed apart in the source
# [8] = target: T1, human OT7T175 (metastin receptor); experiment: cell-based or functional assay; remark: listed apart in the source
# T1 sequence (Q969F8 whole entry L364H): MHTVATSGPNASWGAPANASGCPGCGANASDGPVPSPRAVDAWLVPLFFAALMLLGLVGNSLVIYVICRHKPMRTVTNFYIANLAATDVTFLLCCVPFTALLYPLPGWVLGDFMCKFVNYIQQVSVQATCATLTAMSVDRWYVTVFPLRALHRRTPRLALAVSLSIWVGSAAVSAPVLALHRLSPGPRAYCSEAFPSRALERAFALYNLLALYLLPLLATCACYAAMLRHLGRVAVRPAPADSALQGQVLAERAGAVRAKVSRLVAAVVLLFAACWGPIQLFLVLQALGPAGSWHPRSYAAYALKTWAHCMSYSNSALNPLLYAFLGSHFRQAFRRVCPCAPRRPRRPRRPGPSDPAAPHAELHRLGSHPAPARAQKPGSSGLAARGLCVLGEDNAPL
# Sequence of human OT7T175 (metastin receptor) (human) (Q969F8 whole entry L364H): as above
Molecule,Ca ion level-increasing activity (FLIPR) [4],IC50 [5],"Ca ion level-increasing activity (FLIPR, 40 s) [6]",further results
des(4-5)-Boc-MS10 (peptide),–,–,–,Ca ion level-increasing activity (FLIPR) (x Metastin (1-54)) [1]: 1
des(4-5)-MS10 (peptide),–,–,–,Ca ion level-increasing activity (FLIPR) (x Metastin (1-54)) [1]: 1
"[D-Tyr1,D-Asn2,D-Trp3,Arg(Me)9]MS10 (peptide)",–,–,–,Ca ion level-increasing activity (FLIPR) (x Metastin (1-54)) [2]: 1
"[D-Tyr1,D-Asn2,D-Trp3,AzaGly7,Arg(Me)9]MS10 (peptide)",–,–,–,Ca ion level-increasing activity (FLIPR) (x Metastin (1-54)) [2]: 1; IC50 [3]: 49 nM
"[dY]NSNSFGL[Arg(Me)]F-NH2 (N-terminus assumed; SMILES CNC(=N)NCCC[C@H](NC(=O)[C@H](CC(C)C)NC(=O)CNC(=O)[C@H](Cc1ccccc1)NC(=O)[C@H](CO)NC(=O)[C@H](CC(N)=O)NC(=O)[C@H](CO)NC(=O)[C@H](CC(N)=O)NC(=O)[C@H](N)Cc1ccc(O)cc1)C(=O)N[C@@H](Cc1ccccc1)C(N)=O, also called Compound No. 170) [[D-Tyr1,Ser3,Arg(Me)9]MS10]",1 x Metastin (1-54),260 nM,–,–
YNWNSFGLR[Tyr(Me)]-NH2 (also called Compound No. 18) [[Tyr(Me)10]MS10],1 x Metastin (1-54),7.7 nM,–,–
YNWNSFGLRW-NH2 (also called Compound No. 134) [[Trp10]MS10],30 x Metastin (1-54),110 nM,0.5 EC50/MS10 EC50,–
YNWNSFSLRF-NH2 (also called Compound No. 101) [[Ser7]MS10],10 x Metastin (1-54),100 nM,–,–
YNWNSFGLRY-NH2 (also called Compound No. 109) [[Tyr10]MS10],20 x Metastin (1-54),23 nM,2.6 EC50/MS10 EC50,–
YNWNLFGLRF-NH2 (also called Compound No. 24) [[Leu5]MS10],1 x Metastin (1-54),0.83 nM,–,–
"[dY]NWNSFGL[Arg(Me)]F-NH2 [[D-Tyr1,Arg(Me)9]MS10]",–,–,1.6 EC50/MS10 EC50,"cell growth inhibition activity, IC50 [7]: 87 nM"
"Fmoc-WNSFGLRF-NH2 (SMILES CC(C)C[C@H](NC(=O)CNC(=O)[C@H](Cc1ccccc1)NC(=O)[C@H](CO)NC(=O)[C@H](CC(N)=O)NC(=O)[C@H](Cc1c[nH]c2ccccc12)NC(=O)OCC1c2ccccc2-c2ccccc21)C(=O)N[C@@H](CCCNC(=N)N)C(=O)N[C@@H](Cc1ccccc1)C(N)=O, also called Compound No. 54) [des(1-2)-Fmoc-MS10]",5 x Metastin (1-54),450 nM,–,–
YNWNSFGLR[Phe(F5)]-NH2 (also called Compound No. 111) [[Phe(F5)10]MS10],3 x Metastin (1-54),140 nM,–,–
"[dY][d4Pal]NSF[azaGly]L[Arg(Me)]F-NH2 (N-terminus assumed; SMILES CNC(=N)NCCC[C@H](NC(=O)[C@H](CC(C)C)NC(=O)NNC(=O)[C@H](Cc1ccccc1)NC(=O)[C@H](CO)NC(=O)[C@H](CC(N)=O)NC(=O)[C@@H](Cc1ccncc1)NC(=O)[C@H](N)Cc1ccc(O)cc1)C(=O)N[C@@H](Cc1ccccc1)C(N)=O, also called Compound No. 305; KiSS1-305) [des(1)-[D-Tyr2,D-Pya(4)3,AzaGly7,Arg(Me)9]MS10]",–,1.3 nM,2 EC50/MS10 EC50,"Ca ion level-increasing activity (FLIPR) [8]: 5 x Metastin (1-54); cell growth inhibition activity, IC50 [7]: 8.94 nM"
"{Propanoyl(3-(3-pyridyl))}-NSF[azaGly]L[Arg(Me)]F-NH2 (SMILES CNC(=N)NCCC[C@H](NC(=O)[C@H](CC(C)C)NC(=O)NNC(=O)[C@H](Cc1ccccc1)NC(=O)[C@H](CO)NC(=O)[C@H](CC(N)=O)NC(=O)CCc1cccnc1)C(=O)N[C@@H](Cc1ccccc1)C(N)=O, also called Compound No. 322) [des(1-3)-3-(3-Pyridyl)propionyl-[AzaGly7,Arg(Me)9]MS10]",–,54 nM,5.4 EC50/MS10 EC50,"Ca ion level-increasing activity (FLIPR) [8]: 1 x Metastin (1-54); cell growth inhibition activity, IC50 [7]: 71.9 nM"
"YNWNSXGLRF (Nal(1)6; C-terminal amide, also called Compound No. 151) [[Nal(1)6]MS10]",1 x Metastin (1-54),300 nM,–,–
"[dY]N[4Pal]NSF[azaGly]L[Arg(Me)]F-NH2 (also called Compound No. 286) [[D-Tyr1,Pya(4)3,AzaGly7,Arg(Me)9]MS10]",–,17 nM,–,"Ca ion level-increasing activity (FLIPR) [8]: 2 x Metastin (1-54); cell growth inhibition activity, IC50 [7]: 18.3 nM"

Molecule,Ca ion level-increasing activity (FLIPR) [4],IC50 [5],"Ca ion level-increasing activity (FLIPR, 40 s) [6]",further results
LPNYNWNSFGLRF-NH2 (also called Compound No. 32) [Leu-Pro-Asn-MS10],10 x Metastin (1-54),25 nM,–,–
"YNWNSFGLRX (Nal(1)10; C-terminal amide, also called Compound No. 133) [[Nal(1)10]MS10]",3 x Metastin (1-54),330 nM,–,–
"YNWNSXGLRF (Nal(2)6; C-terminal amide, also called Compound No. 152) [[Nal(2)6]MS10]",5 x Metastin (1-54),180 nM,1.4 EC50/MS10 EC50,–
"YNWNSFGLRX (Nal(2)10; C-terminal amide, also called Compound No. 110) [[Nal(2)10]MS10]",20 x Metastin (1-54),24 nM,–,–
"YNWNSFGXRF (Nle8; C-terminal amide, also called Compound No. 105) [[Nle8]MS10]",1 x Metastin (1-54),880 nM,–,–
"[dY]N[Cha]NSFGL[Arg(Me)]F-NH2 (N-terminus assumed; SMILES CNC(=N)NCCC[C@H](NC(=O)[C@H](CC(C)C)NC(=O)CNC(=O)[C@H](Cc1ccccc1)NC(=O)[C@H](CO)NC(=O)[C@H](CC(N)=O)NC(=O)[C@H](CC1CCCCC1)NC(=O)[C@H](CC(N)=O)NC(=O)[C@H](N)Cc1ccc(O)cc1)C(=O)N[C@@H](Cc1ccccc1)C(N)=O, also called Compound No. 171) [[D-Tyr1,Cha3,Arg(Me)9]MS10]",10 x Metastin (1-54),110 nM,–,–
"YNWNSXGLRF (Cha6; C-terminal amide, also called Compound No. 156) [[Cha6]MS10]",2 x Metastin (1-54),49 nM,0.9 EC50/MS10 EC50,–
"YNWNSFGLRX (Cha10; C-terminal amide, also called Compound No. 112) [[Cha10]MS10]",2 x Metastin (1-54),370 nM,–,–
"{Propanoyl(3-indol-3-yl)}-NSFGLRF-NH2 (SMILES CC(C)C[C@H](NC(=O)CNC(=O)[C@H](Cc1ccccc1)NC(=O)[C@H](CO)NC(=O)[C@H](CC(N)=O)NC(=O)CCc1c[nH]c2ccccc12)C(=O)N[C@@H](CCCNC(=N)N)C(=O)N[C@@H](Cc1ccccc1)C(N)=O, also called Compound No. 114) [des(1-3)-3-(3-Indolyl)propionyl-MS10]",3 x Metastin (1-54),550 nM,4.1 EC50/MS10 EC50,–
"YNWNSFGLRX (Pya(4)10; C-terminal amide, also called Compound No. 17) [[Pya(4)10]MS10]",5 x Metastin (1-54),0.0066 nM,–,–
YNWNSFGLR[Phe(4-NH2)]-NH2 (also called Compound No. 131) [[Phe(4NH2)10]MS10],3 x Metastin (1-54),120 nM,–,–
YN[dW]NSFGLRF-NH2 [[D-Trp3]MS10],30 x Metastin (1-54),–,1.6 EC50/MS10 EC50,–
"YNWNSFGLXF (Har9; C-terminal amide, also called Compound No. 97) [[Har9]MS10]",10 x Metastin (1-54),370 nM,2.9 EC50/MS10 EC50,–
"[dY][dN][4Pal]NSF[azaGly]L[Arg(Me)]F-NH2 (also called Compound No. 303) [[D-Tyr1,D-Asn2,Pya(4)3,AzaGly7,Arg(Me)9]MS10]",–,0.5 nM,6.9 EC50/MS10 EC50,"Ca ion level-increasing activity (FLIPR) [8]: 5 x Metastin (1-54); cell growth inhibition activity, IC50 [7]: 41.2 nM"
"YN[dW]NSFGL[Arg(Me)]F-NH2 (also called Compound No. 143) [[D-Trp3,Arg(Me)9]MS10]",3 x Metastin (1-54),7.7 nM,–,–
[dY]NWNSFGLRF-NH2 [[D-Tyr1]MS10],30 x Metastin (1-54),–,1.6 EC50/MS10 EC50,–
